Reference: the supplement of paper PMC5998384

Experiments:
[1] = test system: HeLa Kyoto; assay: solubility change mitosis vs G1/S (difference of NP-40 vs SDS log2 ratios) (log2 ratio difference); higher = more soluble in mitosis
[2] = test system: HeLa Kyoto; assay: thermal stability score vs G1/S (z-score of summed log2 fold changes over temperatures); higher = more thermally stable than in G1/S
[3] = test system: HeLa Kyoto; assay: solubility in G1/S (NP-40 vs SDS abundance) (log2 ratio); higher = more soluble; conditions: cell cycle stage: G1/S
[4] = test system: HeLa Kyoto; assay: melting temperature (median over replicates), in situ; higher = more thermally stable
[5] = cell cycle stage: early G1 (4.5 h after nocodazole release)
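Throughout, for melting temperature (median over replicates), in situ: HeLa Kyoto cells synchronized by double thymidine or nocodazole block, proteins quantified by TMT10plex mass spectrometry, three independent biological replicates.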
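Throughout, for solubility change mitosis vs G1/S (difference of NP-40 vs SDS log2 ratios): synchronized HeLa Kyoto cells (double thymidine block for G1/S, nocodazole release for mitosis), protein amounts in NP-40 versus SDS lysates quantified by mass spectrometry, three biological replicates.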
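Throughout, for solubility in G1/S (NP-40 vs SDS abundance): HeLa Kyoto cells arrested at G1/S by double thymidine block, proteins quantified by TMT10plex mass spectrometry in mild NP-40 versus SDS extracts, three biological replicates.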
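Throughout, for thermal stability score vs G1/S (z-score of summed log2 fold changes over temperatures): synchronized HeLa Kyoto cells, proteins quantified by TMT10plex mass spectrometry, three biological replicates, mitosis taken 0.5 h after nocodazole release, G1/S directly after double thymidine block.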

| Sequence | solubility change mitosis (log2) [1] | thermal stability score [2, 5] | thermal stability score ([2]; cell cycle stage: mitosis) | solubility in G1/S (log2) [3] | melting temperature ([4]; cell cycle stage: G1/S) [°C] | melting temperature ([4]; cell cycle stage: mitosis) [°C] |
| --- | --- | --- | --- | --- | --- | --- |
| MKPDETPMFDPSLLKEVDWSQNTATFSPAISPTHPGEGLVLRPLCTADLNRGFFKVLGQLTETGVVSPEQFMKSFEHMKKSGDYYVTVVEDVTLGQIVATATLIIEHKFIHSCAKRGRVEDVVVSDECRGKQLGKLLLSTLTLLSKKLNCYKITLECLPQNVGFYKKFGYTVSEENYMCRRFLK [GNPNAT1] | -0.0779 | -0.0383 | -1.14 | 0.222 | 56.2 | 57.5 |
| MKPGATGESDLAEVLPQHKFDSKSLEAYLNQHLSGFGAEREATLTIAQYRAGKSNPTFYLQKGFQTYVLRKKPPGSLLPKAHQIDREFKVQKALFSIGFPVPKPILYCSDTSVIGTEFYVMEHVQGRIFRDLTIPGLSPAERSAIYVATVETLAQLHSLNIQSLQLEGYGIGAGYCKRQVSTWTKQYQAAAHQDIPAMQQLSEWLMKNLPDNDNEENLIHGDFRLDNIVFHPKECRVIAVLDWELSTIGHPLSDLAHFSLFYFWPRTVPMINQGSYSENSGIPSMEELISIYCRCRGINSILPNWNFFLALSYFKMAGIAQGVYSRYLLGNNSSEDSFLFANIVQPLAETGLQLSKRTFSTVLPQIDTTGQLFVQTRKGQEVLIKVKHFMKQHILPAEKEVTEFYVQNENSVDKWGKPLVIDKLKEMAKVEGLWNLFLPAVSGLSHVDYALIAEETGKCFFAPDVFNCQAPDTGNMEVLHLYGSEEQKKQWLEPLLQGNITSCFCMTEPDVASSDATNIECSIQRDEDSYVINGKKWWSSGAGNPKCKIAIVLGRTQNTSLSRHKQHSMILVPMNTPGVKIIRPLSVFGYTDNFHGGHFEIHFNQVRVPATNLILGEGRGFEISQGRLGPGRIHHCMRTVGLAERALQIMCERATQRIAFKKKLYAHEVVAHWIAESRIAIEKIRLLTLKAAHSMDTLGSAGAKKEIAMIKVAAPRAVSKIVDWAIQVCGGAGVSQDYPLANMYAITRVLRLADGPDEVHLSAIATMELRDQAKRLTAKI [ACAD11] | -0.0749 | 0.241 | -0.505 | -0.0959 | 53.9 | 52.9 |
| MKPGFSPRGGGFGGRGGFGDRGGRGGRGGFGGGRGRGGGFRGRGRGGGGGGGGGGGGGRGGGGFHSGGNRGRGRGGKRGNQSGKNVMVEPHRHEGVFICRGKEDALVTKNLVPGESVYGEKRVSISEGDDKIEYRAWNPFRSKLAAAILGGVDQIHIKPGAKVLYLGAASGTTVSHVSDIVGPDGLVYAVEFSHRSGRDLINLAKKRTNIIPVIEDARHPHKYRMLIAMVDVIFADVAQPDQTRIVALNAHTFLRNGGHFVISIKANCIDSTASAEAVFASEVKKMQQENMKPQEQLTLEPYERDHAVVVGVYRPPPKVKN [FBL] | 1.49 | -1.06 | -3.39 | -1.97 | 52.9 | 51.5 |
| MKQDASRNAAYTVDCEDYVHVVEFNPFENGDSGNLIAYGGNNYVVIGTCTFQEEEADVEGIQYKTLRTFHHGVRVDGIAWSPETRLDSLPPVIKFCTSAADMKIRLFTSDLQDKNEYKVLEGHTDFINGLVFDPKEGQEIASVSDDHTCRIWNLEGVQTAHFVLHSPGMSVCWHPEETFKLMVAEKNGTIRFYDLLAQQAILSLESEQVPLMSAHWCLKNTFKVGAVAGNDWLIWDITRSSYPQNKRPVHMDRACLFRWSTISENLFATTGYPGKMASQFQIHHLGHPQPILMGSVAVGSGLSWHRTLPLCVIGGDHKLLFWVTEV [NUP37] | 0.135 | -3.41 | -4.8 | -0.294 | 53.3 | 51 |
| MKQLPVLEPGDKPRKATWYTLTVPGDSPCARVGHSCSYLPPVGNAKRGKVFIVGGANPNRSFSDVHTMDLGKHQWDLDTCKGLLPRYEHASFIPSCTPDRIWVFGGANQSGNRNCLQVLNPETRTWTTPEVTSPPPSPRTFHTSSAAIGNQLYVFGGGERGAQPVQDTKLHVFDANTLTWSQPETLGNPPSPRHGHVMVAAGTKLFIHGGLAGDRFYDDLHCIDISDMKWQKLNPTGAAPAGCAAHSAVAMGKHVYIFGGMTPAGALDTMYQYHTEEQHWTLLKFDTLLPPGRLDHSMCIIPWPVTCASEKEDSNSLTLNHEAEKEDSADKVMSHSGDSHEESQTATLLCLVFGGMNTEGEIYDDCIVTVVD [RABEPK] | -0.084 | -1.33 | -1.94 | 0.201 | 56.5 | 56 |
| MKRQGASSERKRARIPSGKAGAANGFLMEVCVDSVESAVNAERGGADRIELCSGLSEGGTTPSMGVLQVVKQSVQIPVFVMIRPRGGDFLYSDREIEVMKADIRLAKLYGADGLVFGALTEDGHIDKELCMSLMAICRPLPVTFHRAFDMVHDPMAALETLLTLGFERVLTSGCDSSALEGLPLIKRLIEQAKGRIVVMPGGGITDRNLQRILEGSGATEFHCSARSTRDSGMKFRNSSVAMGASLSCSEYSLKVTDVTKVRTLNAIAKNILV [CUTC] | -0.0574 | -0.146 | -0.357 | -0.00165 | 54.4 | 54.1 |
| MKRRTDPECTAPIKKQKKRVAELALSLSSTSDDEPPSSVSHGAKASTTSLSGSDSETEGKQHSSDSFDDAFKADSLVEGTSSRYSMYNSVSQKLMAKMGFREGEGLGKYSQGRKDIVEASSQKGRRGLGLTLRGFDQELNVDWRDEPEPSACEQVSWFPECTTEIPDTQEMSDWMVVGKRKMIIEDETEFCGEELLHSVLQCKSVFDVLDGEEMRRARTRANPYEMIRGVFFLNRAAMKMANMDFVFDRMFTNPRDSYGKPLVKDREAELLYFADVCAGPGGFSEYVLWRKKWHAKGFGMTLKGPNDFKLEDFYSASSELFEPYYGEGGIDGDGDITRPENISAFRNFVLDNTDRKGVHFLMADGGFSVEGQENLQEILSKQLLLCQFLMALSIVRTGGHFICKTFDLFTPFSVGLVYLLYCCFERVCLFKPITSRPANSERYVVCKGLKVGIDDVRDYLFAVNIKLNQLRNTDSDVNLVVPLEVIKGDHEFTDYMIRSNESHCSLQIKALAKIHAFVQDTTLSEPRQAEIRKECLRLWGIPDQARVAPSSSDPKSKFFELIQGTEIDIFSYKPTLLTSKTLEKIRPVFDYRCMVSGSEQKFLIGLGKSQIYTWDGRQSDRWIKLDLKTELPRDTLLSVEIVHELKGEGKAQRKISAIHILDVLVLNGTDVREQHFNQRIQLAEKFVKAVSKPSRPDMNPIRVKEVYRLEEMEKIFVRLEMKIIKGSSGTPKLSYTGRDDRHFVPMGLYIVRTVNEPWTMGFSKSFKKKFFYNKKTKDSTFDLPADSIAPFHICYYGRLFWEWGDGIRVHDSQKPQDQDKLSKEDVLSFIQMHRA [CMTR1] | -0.0832 | 0.699 | 1.05 | -0.186 | 49.7 | 51 |
| MKSSVAQIKPSSGHDRRENLNSYQRNSSPEDRYEEQERSPRDRDYFDYSRSDYEHSRRGRSYDSSMESRNRDREKRRERERDTDRKRSRKSPSPGRRNPETSVTQSSSAQDEPATKKKKDELDPLLTRTGGAYIPPAKLRMMQEQITDKNSLAYQRMSWEALKKSINGLINKVNISNISIIIQELLQENIVRGRGLLSRSVLQAQSASPIFTHVYAALVAIINSKFPQIGELILKRLILNFRKGYRRNDKQLCLTASKFVAHLINQNVAHEVLCLEMLTLLLERPTDDSVEVAIGFLKECGLKLTQVSPRGINAIFERLRNILHESEIDKRVQYMIEVMFAVRKDGFKDHPIILEGLDLVEEDDQFTHMLPLEDDYNPEDVLNVFKMDPNFMENEEKYKAIKKEILDEGDTDSNTDQDAGSSEEDEEEEEEEGEEDEEGQKVTIHDKTEINLVSFRRTIYLAIQSSLDFEECAHKLLKMEFPESQTKELCNMILDCCAQQRTYEKFFGLLAGRFCMLKKEYMESFEGIFKEQYDTIHRLETNKLRNVAKMFAHLLYTDSLPWSVLECIKLSEETTTSSSRIFVKIFFQELCEYMGLPKLNARLKDETLQPFFEGLLPRDNPRNTRFAINFFTSIGLGGLTDELREHLKNTPKVIVAQKPDVEQNKSSPSSSSSASSSSESDSSDSDSDSSDSSSESSSEESDSSSISSHSSASANDVRKKGHGKTRSKEVDKLIRNQQTNDRKQKERRQEHGHQETRTERERRSEKHRDQNSSGSNWRDPITKYTSDKDVPSERNNYSRVANDRDQEMHIDLENKHGDPKKKRGERRNSFSENEKHTHRIKDSENFRRKDRSKSKEMNRKHSGSRSDEDRYQNGAERRWEKSSRYSEQSRESKKNQDRRREKSPAKQK [CWC22] | 0.227 | 1.24 | 2.43 | -0.707 | 46.1 | 49.3 |
